Test results: US20250250357A1 (NANJING ZAIMING PHARMACEUTICAL, published 2025)

Assays:
[1] = molecular target: T1, human MSLN-FL-his protein (human, UniProt Q13421 296-580); assay: ELISA, coated antigen; antibody 10 nM
T1 construct: also called human MSLN full-length protein; hMSLN-FL-his; not shown: His tag

[2] = molecular target: T2, human MSLN-R1-his protein (human, UniProt Q13421 296-390); assay: ELISA, coated antigen; antibody 100 nM
T2 construct: also called human MSLN-R1 protein; hMSLN-R1-his; not shown: His tag

[3] = molecular target: T2, human MSLN-R1-his protein; assay: ELISA, coated antigen; antibody 0.001 nM
Description: (§1) The plate was sealed with a plastic film and incubated at 4° C. overnight. The next day, the plate was washed twice with PBST, and a blocking buffer [PBS+2% (w/w) BSA] was added for blocking at room temperature for 2 h. The blocking buffer was discarded, and a chimeric antibody or negative control antibody serially diluted from 100 nM was added at 50 μL/well. After incubation at 37° C. for 2 h, the plate was washed 3 times with PBST. […] After incubation at 37° C. for 2 h, the plate was washed 5 times with PBST. A TMB substrate was added at 50 μL/well for incubation at room temperature for 5-10 min, and then a stop solution (1.0 N HCl) was added at 50 μL/well.

[4] = molecular target: T2, human MSLN-R1-his protein; assay: ELISA, coated antigen; antibody 0.1 nM
Description: as §1

[5] = molecular target: T3, human MSLN-R2-his protein (human, UniProt Q13421 391-486); assay: ELISA, coated antigen; antibody 10 nM
T3 construct: also called human MSLN-R2 protein; hMSLN-R2-his; not shown: His tag

[6] = molecular target: T1, human MSLN-FL-his protein; assay: ELISA, coated antigen; antibody 0.001 nM
Description: as §1

[7] = molecular target: T3, human MSLN-R2-his protein; assay: ELISA, coated antigen; antibody 0.01 nM
Description: as §1

[8] = molecular target: T1, human MSLN-FL-his protein; assay: ELISA, coated antigen; antibody 0.0001 nM
Description: as §1

[9] = molecular target: T3, human MSLN-R2-his protein; assay: ELISA, coated antigen; antibody 100 nM
Description: as §1

[10] = molecular target: T2, human MSLN-R1-his protein; assay: ELISA, coated antigen; antibody 10 nM
Description: as §1

[11] = molecular target: T1, human MSLN-FL-his protein; assay: ELISA, coated antigen; antibody 1 nM
Description: as §1

[12] = molecular target: T3, human MSLN-R2-his protein; assay: ELISA, coated antigen; antibody 0.1 nM
Description: as §1

[13] = molecular target: T1, human MSLN-FL-his protein; assay: ELISA, coated antigen; antibody 0.1 nM
Description: as §1

[14] = molecular target: T2, human MSLN-R1-his protein; assay: ELISA, coated antigen; antibody 0.0001 nM
Description: as §1

[15] = molecular target: T1, human MSLN-FL-his protein; assay: ELISA, coated antigen; no antibody (blank, column 'none')
Description: as §1

[16] = molecular target: T1, human MSLN-FL-his protein; assay: ELISA, coated antigen; antibody 100 nM
Description: as §1

[17] = molecular target: T3, human MSLN-R2-his protein; assay: ELISA, coated antigen; antibody 0.0001 nM
Description: as §1

[18] = molecular target: T1, human MSLN-FL-his protein; assay: ELISA, coated antigen; antibody 0.01 nM
Description: as §1

[19] = molecular target: T3, human MSLN-R2-his protein; assay: ELISA, coated antigen; antibody 0.001 nM
Description: as §1

[20] = molecular target: T3, human MSLN-R2-his protein; assay: ELISA, coated antigen; no antibody (blank, column 'none')
Description: as §1

[21] = molecular target: T2, human MSLN-R1-his protein; assay: as above
Description: as §1

[22] = molecular target: T2, human MSLN-R1-his protein; assay: ELISA, coated antigen; antibody 0.01 nM
Description: as §1

[23] = molecular target: T3, human MSLN-R2-his protein; assay: ELISA, coated antigen; antibody 1 nM
Description: as §1

[24] = molecular target: T2, human MSLN-R1-his protein; assay: ELISA, coated antigen; antibody 1 nM
Description: as §1

T1 sequence (Q13421 other isoform, or with tags, fused parts or gaps): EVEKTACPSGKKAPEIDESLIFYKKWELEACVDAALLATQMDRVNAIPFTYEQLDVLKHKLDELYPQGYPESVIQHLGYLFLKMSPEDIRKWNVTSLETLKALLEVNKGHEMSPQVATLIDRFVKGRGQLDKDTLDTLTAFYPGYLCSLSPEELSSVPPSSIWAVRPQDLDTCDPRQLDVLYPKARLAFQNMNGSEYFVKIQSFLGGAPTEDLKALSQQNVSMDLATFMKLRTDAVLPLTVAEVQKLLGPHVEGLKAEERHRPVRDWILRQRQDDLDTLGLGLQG
T3 sequence (Q13421 other isoform, or with tags, fused parts or gaps): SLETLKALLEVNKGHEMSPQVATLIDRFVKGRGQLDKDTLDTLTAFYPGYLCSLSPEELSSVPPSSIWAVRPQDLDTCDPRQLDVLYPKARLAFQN
T2 sequence (Q13421 other isoform, or with tags, fused parts or gaps): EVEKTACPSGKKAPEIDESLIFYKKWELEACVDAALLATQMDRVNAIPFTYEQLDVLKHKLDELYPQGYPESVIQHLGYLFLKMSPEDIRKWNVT

Row | OD450 [1] | OD450 [2] | OD450 [3] | OD450 [4] | OD450 [5] | OD450 [6] | OD450 [7] | OD450 [8] | OD450 [9] | OD450 [10] | OD450 [11] | OD450 [12] | OD450 [13] | OD450 [14] | OD450 [15] | OD450 [16] | OD450 [17] | OD450 [18] | OD450 [19] | OD450 [20] | Binder | further results
1 | 0.19 OD450 | 0.09 OD450 | 0.04 OD450 | 0.04 OD450 | 0.06 OD450 | 0.04 OD450 | 0.04 OD450 | 0.04 OD450 | 0.13 OD450 | 0.05 OD450 | 0.06 OD450 | 0.04 OD450 | 0.04 OD450 | 0.05 OD450 | 0.05 OD450 | 1.12 OD450 | 0.04 OD450 | 0.04 OD450 | 0.04 OD450 | 0.05 OD450 | S009-F5-9.16 (antibody, human IgG1, kappa, V domains shown, Human-murine chimeric antibody, human IgG1/kappa constant regions) VH: EVQLRQSGPVLVKPGASVKMSCKASGYTFTDYFMNWVKPSHGKSLEWIGVINPSNGVINYNQRFKGKATLTVDKSSSTAYMELNSLTSEDSAVYYCARSYDFAWFAYWGQGTLVTVSA VL: DVLMTQTPLSLPVSLGDQASISCRSSQNIVHSNGNTYLEWYLQKPGQSPKLLIYTVSNRFSGVPDRFSGSGSGTDFTLKISRVEAEDLGVYYCFQGSHVPYTFGGGTKLEIKR | OD450 [21]: 0.04 OD450; OD450 [22]: 0.04 OD450; OD450 [23]: 0.04 OD450; OD450 [24]: 0.04 OD450
2 | 0.09 OD450 | 0.08 OD450 | 0.05 OD450 | 0.05 OD450 | 0.06 OD450 | 0.06 OD450 | 0.05 OD450 | 0.06 OD450 | 0.09 OD450 | 0.06 OD450 | 0.06 OD450 | 0.05 OD450 | 0.06 OD450 | 0.05 OD450 | 0.06 OD450 | 0.21 OD450 | 0.06 OD450 | 0.06 OD450 | 0.05 OD450 | 0.06 OD450 | S009-F4-127.10 (antibody, human IgG1, kappa, V domains shown, Human-murine chimeric antibody, human IgG1/kappa constant regions) VH: EVQLQQSGPVLVKPGASVKMSCKASGYTFTDYYMNWVKQSHGKSPEWIGVINPYNDVISYNQKFKGKATLTVDKSSSTAYMELNSLTSEDSAVYYCANYGSSYYAMDYWGQGTSVTVSS VL: DVVMTQTPLSLSVSLGDQASISCRSSQSLVHSNGNTYLQWSLQKPGQSPNLLIYKVSNRFSGVPDRFSGSGSGTDFTLKISRVEAEDLGVYFCSQTTHVPFTFGGGTKLEIRR | OD450 [21]: 0.06 OD450; OD450 [22]: 0.05 OD450; OD450 [23]: 0.05 OD450; OD450 [24]: 0.05 OD450
3 | 2.87 OD450 | 0.06 OD450 | 0.04 OD450 | 0.04 OD450 | 0.2 OD450 | 0.29 OD450 | 0.04 OD450 | 0.1 OD450 | 0.33 OD450 | 0.04 OD450 | 2.87 OD450 | 0.07 OD450 | 2.4 OD450 | 0.04 OD450 | 0.05 OD450 | 2.83 OD450 | 0.05 OD450 | 1.09 OD450 | 0.04 OD450 | 0.05 OD450 | S009-F6-76.1 (antibody, human IgG1, kappa, V domains shown, Human-murine chimeric antibody, human IgG1/kappa constant regions) VH: QVQLQQSGPELVKPGASVKISCKASGYTFTDYYINWVKQRPGQGLEWIGWIFPGRGSTFYYEKFKGKATLTVDKSSSTAYMLLSSLTSEDSAVYFCARRGDSAGYEDLDYWGQGTSVTVSS VL: NIVMTQSPKFMSMSVGERVTLSCKASENVVTYVSWYQQKPKQSPKLLIYGASKRYTGVPDRFTGSGSATDFTLTISSVQAEDLGDYHCGQSYSYPYTFGGGTKLEIKR | OD450 [21]: 0.04 OD450; OD450 [22]: 0.04 OD450; OD450 [23]: 0.12 OD450; OD450 [24]: 0.04 OD450
